Experimental data published in PMC10873877.

Molecular target: His-AvrXa27 (Xanthomonas oryzae pv. oryzae, UniProt Q4QS99 1-1136)
Assay: EMSA; […]; buffer, […], pH and temperature not stated
Settings: protein: recombinant; tags: His (pET-30a); label: Cy5; blunt

B1: Xa13p-14 (dsDNA)
DNA 1: ATCTCCCCCTACTCTACAT
DNA 2: ATGTAGAGTAGGGGGAGAT
Q: Does B1 bind?
A: Result: no binding
